Assay results taken from PMC5501724, “Structural Basis for Specific Interaction of TGFβ Signaling Regulators SARA/Endofin with HD-PTP” (Structure(London, England:1993), 2017).
Where “and” joins values, the source holds several entries; their conditions need not be identical. Equal entries are not always repeated. Ends that are not written are not given here.

Columns and labels:
[1] = target: T1, HD-PTPBro1-CC (1-714) (Homo sapiens, UniProt Q9H3S7); assay: Biosensor (SPR) binding of peptides to HD-PTPBro1-CC; settings: 10 mM HEPES pH 7.4, 150 mM NaCl, 0.05% Tween 20, 25°C; for Binding to HD-PTPBro1-CC (sensogram): compared with wild-type endofin peptide, result in words
T1 construct: HD-PTPBro1-CC (1-714) and AlixBro1 (1-359) were cloned in a pET28a vector; made in house; host or cells: E. coli BL21 (DE3)
T1 sequence (Q9H3S7 1-714): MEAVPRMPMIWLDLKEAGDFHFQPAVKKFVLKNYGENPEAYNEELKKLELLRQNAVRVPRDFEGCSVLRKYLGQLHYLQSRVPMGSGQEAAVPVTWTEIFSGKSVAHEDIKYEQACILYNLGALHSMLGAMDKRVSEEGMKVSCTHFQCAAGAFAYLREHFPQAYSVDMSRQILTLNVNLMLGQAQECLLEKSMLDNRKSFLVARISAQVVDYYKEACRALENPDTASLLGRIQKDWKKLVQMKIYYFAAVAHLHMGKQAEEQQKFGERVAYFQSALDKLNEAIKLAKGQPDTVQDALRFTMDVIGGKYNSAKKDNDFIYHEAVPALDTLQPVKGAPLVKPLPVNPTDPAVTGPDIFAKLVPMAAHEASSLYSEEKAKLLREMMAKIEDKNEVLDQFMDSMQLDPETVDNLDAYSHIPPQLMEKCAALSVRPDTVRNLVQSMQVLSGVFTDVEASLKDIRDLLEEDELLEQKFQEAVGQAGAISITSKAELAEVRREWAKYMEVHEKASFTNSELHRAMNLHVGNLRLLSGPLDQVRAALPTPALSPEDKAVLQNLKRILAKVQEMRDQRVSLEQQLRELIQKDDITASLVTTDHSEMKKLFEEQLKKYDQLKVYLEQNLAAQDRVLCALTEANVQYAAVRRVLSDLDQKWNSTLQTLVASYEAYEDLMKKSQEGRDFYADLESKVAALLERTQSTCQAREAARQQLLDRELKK
Experimental: (§1) Biosensor based binding experiments were performed using a ProteOn XPR36 surface Plasmon resonance instrument (Bio-Rad Laboratories). The ProteOn XPR36 is multiplex system that can be used to provide simultaneous flow of up to six analyte channels (A1-A6) over up to six ligand channels (L1-L6). The running buffer used was 10 mM HEPES pH 7.4, 150 mM NaCl, 0.05% Tween 20. Immobilization of His6-tagged HD-PTP and a negative control protein, His6-tagged MptpB, was performed on a HTE chip (Bio-Rad Laboratories) in the vertical orientation. Proteins were diluted in running buffer to a final concentration of 50-100 μg/ml and 150 μl was injected at a flow rate of 30 μl/min The immobilization level of proteins was typically 5000-8000 response unit (RU). All experiments were performed at 25°C. Synthetic peptides spanning the binding regions of CHMP4 A, B and C, and SARA and endofin, were obtained from Generon Ltd, UK. For equilibrium binding measurements these peptides were used as analytes. Peptide stocks were prepared in running buffer just prior the binding experiments. Peptides were injected (50 μl at 100 μl/min) in the horizontal orientation using five serially diluted peptide concentrations (channels A1-A5) alongside a buffer control (channel A6). Peptide concentrations were chosen to give a suitable spread of responses below and above half-maximal binding.
(§2) All the binding sensograms were collected, processed and analyzed using the integrated ProteOn Manager software (Bio-Rad Laboratories), using the equilibrium binding mode: Response = [A] ^∗ Rmax/([A] + KD), where [A] is the analyte concentration and Rmax is the maximum response. At least 3 independent replicates were performed for each experiment. Values in the text and figure legends indicate mean +/- SD (standard deviation).

[2] = target: T2, HD-PTPBro1 (Bro1 domain of HD-PTP, 1-361) (Homo sapiens, UniProt Q9H3S7); assay: Biosensor (SPR) binding of peptides to HD-PTPBro1; settings: 10 mM HEPES pH 7.4, 150 mM NaCl, 0.05% Tween 20, 25°C; for Binding to HD-PTPBro1 (sensogram): compared with wild-type endofin peptide, result in words
T2 construct: HD-PTPBro1 (1-361) was cloned in a pNIC28-Bsa4 vector; made in house; host or cells: E. coli BL21 (DE3)
T2 sequence (Q9H3S7 1-361): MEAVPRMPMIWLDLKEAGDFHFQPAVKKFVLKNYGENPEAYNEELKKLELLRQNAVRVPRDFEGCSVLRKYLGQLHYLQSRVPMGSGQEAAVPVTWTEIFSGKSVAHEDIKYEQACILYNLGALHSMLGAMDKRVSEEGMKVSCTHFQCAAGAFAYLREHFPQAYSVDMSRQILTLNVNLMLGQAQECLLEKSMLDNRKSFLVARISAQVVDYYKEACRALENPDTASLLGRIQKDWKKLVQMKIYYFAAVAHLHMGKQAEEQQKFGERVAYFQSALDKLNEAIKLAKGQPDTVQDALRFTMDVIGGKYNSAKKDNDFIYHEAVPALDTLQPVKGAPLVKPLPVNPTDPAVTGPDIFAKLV
Experimental: as §1, §2

[3] = target: T3, His6-HD-PTP_(Bro1-CC) (1-714), bacterially expressed (human, UniProt Q9H3S7 1-714); assay: SPR; ProteOn XPR36; His6-tagged proteins immobilised on a HTE chip (5000-8000 RU); synthetic peptides as analytes, five concentrations; 10 mM HEPES pH 7.4, 150 mM NaCl, 0.05% Tween 20; 25°C; equilibrium binding fit; settings: both partners purified
T3 construct: HD-PTP/PTPN23, Bro1 and coiled-coil domains, residues 1-714; also called His-HD-PTP; source: E. coli BL21 (DE3), purified (Nickel-beads, MonoQ, Superdex 200); not shown: His6, N-terminal, kept
T3 sequence (looked up): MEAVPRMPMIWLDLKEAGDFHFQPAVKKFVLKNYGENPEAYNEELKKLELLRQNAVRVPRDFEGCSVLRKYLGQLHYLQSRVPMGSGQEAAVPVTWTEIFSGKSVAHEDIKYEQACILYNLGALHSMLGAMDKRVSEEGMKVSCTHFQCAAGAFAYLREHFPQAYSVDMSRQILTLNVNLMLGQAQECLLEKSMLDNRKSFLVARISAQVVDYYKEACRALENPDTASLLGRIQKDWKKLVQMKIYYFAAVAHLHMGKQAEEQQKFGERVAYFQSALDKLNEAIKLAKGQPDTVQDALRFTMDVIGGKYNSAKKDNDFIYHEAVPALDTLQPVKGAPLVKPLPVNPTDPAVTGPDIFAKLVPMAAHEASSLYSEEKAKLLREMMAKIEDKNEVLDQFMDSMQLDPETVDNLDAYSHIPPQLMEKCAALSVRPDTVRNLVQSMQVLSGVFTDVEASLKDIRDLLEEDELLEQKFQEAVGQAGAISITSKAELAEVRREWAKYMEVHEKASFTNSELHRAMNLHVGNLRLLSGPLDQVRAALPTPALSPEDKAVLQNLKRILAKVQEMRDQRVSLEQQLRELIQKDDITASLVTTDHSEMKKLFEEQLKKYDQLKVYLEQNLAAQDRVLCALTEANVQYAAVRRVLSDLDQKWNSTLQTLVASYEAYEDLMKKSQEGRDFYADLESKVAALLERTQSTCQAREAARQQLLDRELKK

[4] = target: T4, His6-HD-PTP_(Bro1) (1-361) (human, UniProt Q9H3S7 1-361); assay: as above; settings: both partners purified
T4 construct: HD-PTP/PTPN23, Bro1 domain, residues 1-361; Immobilised by its His6 tag on the HTE chip; also called HD-PTP Bro1 domain; source: E. coli BL21 (DE3), purified (Nickel-beads, MonoQ, Superdex 200); not shown: His6, N-terminal, kept
T4 sequence (looked up): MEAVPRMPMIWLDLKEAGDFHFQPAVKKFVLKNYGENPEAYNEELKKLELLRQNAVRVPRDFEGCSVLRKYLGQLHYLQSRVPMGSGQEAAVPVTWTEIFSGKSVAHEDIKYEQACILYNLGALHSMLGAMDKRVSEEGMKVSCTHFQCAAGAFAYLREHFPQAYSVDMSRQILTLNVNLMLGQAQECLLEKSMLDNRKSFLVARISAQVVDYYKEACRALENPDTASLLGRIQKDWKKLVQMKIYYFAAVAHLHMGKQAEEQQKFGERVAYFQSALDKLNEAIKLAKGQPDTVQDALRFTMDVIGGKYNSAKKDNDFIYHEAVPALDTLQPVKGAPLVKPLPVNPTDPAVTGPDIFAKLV

[5] = target: T5, Endofin (Homo sapiens (Human), UniProt Q7Z3T8); assay: SPR equilibrium, peptide analyte
T5 chain: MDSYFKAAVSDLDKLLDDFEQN

[6] = target: T6, His6-HD-PTP_(Bro1-CC) T145K, bacterially expressed (human, UniProt Q9H3S7 1-714, T145K); assay: co-IP; bacterially expressed GST-CHMP4B, full length or truncated (50 μg/ml), and His6-HD-PTP Bro1-CC (5 μg) in 200 μl IP2 buffer with 250 mM NaCl, 2 h at 4°C; immunoprecipitation with anti-His; settings: both partners purified
T6 construct: HD-PTP/PTPN23, residues 1-714 with T145K; source: E. coli, bacterially expressed, purified; not shown: His6, N-terminal, kept
T6 sequence (looked up): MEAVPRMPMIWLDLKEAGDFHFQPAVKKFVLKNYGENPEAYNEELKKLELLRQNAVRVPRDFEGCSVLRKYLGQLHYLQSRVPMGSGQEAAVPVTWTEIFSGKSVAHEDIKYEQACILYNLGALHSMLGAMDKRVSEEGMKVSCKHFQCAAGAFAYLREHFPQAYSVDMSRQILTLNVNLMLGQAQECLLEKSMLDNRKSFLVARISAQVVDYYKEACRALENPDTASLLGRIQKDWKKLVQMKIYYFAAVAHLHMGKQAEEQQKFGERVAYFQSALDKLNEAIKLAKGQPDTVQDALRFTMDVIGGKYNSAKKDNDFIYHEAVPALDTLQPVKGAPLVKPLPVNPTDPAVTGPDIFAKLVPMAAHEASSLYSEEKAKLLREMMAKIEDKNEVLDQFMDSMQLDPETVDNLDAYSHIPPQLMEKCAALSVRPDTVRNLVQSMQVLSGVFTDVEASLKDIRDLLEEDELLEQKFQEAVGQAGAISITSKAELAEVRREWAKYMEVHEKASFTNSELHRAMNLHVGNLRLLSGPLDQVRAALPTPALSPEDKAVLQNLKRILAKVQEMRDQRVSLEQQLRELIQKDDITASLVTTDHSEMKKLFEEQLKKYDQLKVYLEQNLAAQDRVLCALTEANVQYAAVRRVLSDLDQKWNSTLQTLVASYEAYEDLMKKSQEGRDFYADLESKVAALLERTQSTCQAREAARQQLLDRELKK

[7] = target: T3, His6-HD-PTP_(Bro1-CC) (1-714), …; assay: co-IP; competition: GST-CHMP4B and His6-HD-PTP Bro1-CC as in the CHMP4B binding experiments, endofin 22-mer peptide (WT or L15P) added at 20 μM; immunoprecipitation with anti-His; settings: both partners purified
[8] = listed as endofin L15 to proline
[9] = listed as endofin peptide containing the L15P mutation

Molecule: KAAVSDLDKLLDDFEQN
- Binding to HD-PTPBro1-CC (sensogram) [1]: poor binding
- Kd ([1]; poor binding, read-out: Binding (affinity bound) to HD-PTPBro1-CC): > 1500 µM
- Binding to HD-PTPBro1 (sensogram) [2]: poor binding
- Kd ([2]; poor binding, read-out: Binding (affinity bound) to HD-PTPBro1): > 1500 µM

Molecule: endofin1–22(L15P): endofin 22-mer peptide containing the L15P mutation (MDSYFKAAVSDLDKPLDDFEQN)
- Binding to HD-PTPBro1-CC (sensogram) [1, 8]: abolishes binding
- Binding to HD-PTPBro1-CC (sensogram) [1, 9]: did not bind
- Binding to HD-PTPBro1 (sensogram) [2, 8]: abolishes binding
- Binding to HD-PTPBro1 (sensogram) [2, 9]: did not bind

B1: endofin 22-mer peptide (first 22 residues of endofin) (peptide, UniProt Q7Z3T8 1-22, looked up)
peptide: MDSYFKAAVSDLDKLLDDFEQN
notes: human endofin, first 22 residues; begins 1-MDSYF-5; also called endofin peptide; endofin_(1-22) (WT); source: synthetic peptide (Generon Ltd, UK)
- Kd [3]: 2.7 µM
- Kd [4]: 3.1 µM

Molecule: KKKEEEDDDMKELENWAGSM [CHMP4B C-terminal peptide]
- Kd [4]: 85 µM

Molecule: QRAEEEDDDIKQLAAWAT [CHMP4C C-terminal peptide]
- Kd [4]: 89 µM and 88 µM

B2: ALIX_Bro1 (protein)
chain: MATFISVQLKKTSEVDLAKPLVKFIQQTYPSGGEEQAQYCRAAEELSKLRRAAVGRPLDKHEGALETLLRYYDQICSIEPKFPFSENQICLTFTWKDAFDKGSLFGGSVKLALASLGYEKSCVLFNCAALASQIAAEQNLDNDEGLKIAAKHYQFASGAFLHIKETVLSALSREPTVDISPDTVGTLSLIMLAQAQEVFFLKATRDKMKDAIIAKLANQAADYFGDAFKQCQYKDTLPKEVFPVLAAKHCIMQANAEYHQSILAKQQKKFGEEIARLQHAAELIKTVASRYDEYVNVKDFSDKINRALAAAKKDNDFIYHDRVPDLKDLDPIGKATLVKSTPVNVPISQKFTDLFEKMV
- Kd [5]: > 12.5 µM

B3: GST-CHMP4B (1-224), bacterially expressed (natural protein, human, UniProt Q9H444 1-224, looked up)
chain: MSVFGKLFGAGGGKAGKGGPTPQEAIQRLRDTEEMLSKKQEFLEKKIEQELTAAKKHGTKNKRAALQALKRKKRYEKQLAQIDGTLSTIEFQREALENANTNTEVLKNMGYAAKAMKAAHDNMDIDKVDELMQDIADQQELAEEISTAISKPVGFGEEFDEDELMAELEELEQEELDKNLLEISGPETVPLPNVPSIALPSKPAKKKEEEDDDMKELENWAGSM
notes: CHMP4B, residues 1-224, full length; In pGEX-4T1; also called CHMP4B-FL; full length GST-CHMP4B; source: E. coli C41 (DE3), purified (GSTrap HP)
- binding result [6]: binds
- binding result [7]: binds

B4: SARA 22-mer peptide (N-terminal 22 residues of SARA) (peptide, UniProt O95405 1-22, looked up)
peptide: MENYFQAEAYNLDKVLDEFEQN
notes: human SARA, N-terminal 22 residues; also called SARA peptide; equivalent region of SARA; source: synthetic peptide (Generon Ltd, UK)
- Kd [4]: 11.3 µM

Molecule: PKVDEDEEALKQLAEWVS [CHMP4A C-terminal peptide]
- Kd [4]: 132 µM

B5: shorter endofin peptide lacking 1-MDSYF-5 (peptide)
chain: KAAVSDLDKLLDDFEQN
modifications: C-terminal limit not given; taken as residue 22, the end of the 22-mer endofin peptide
- Kd [3]: > 1500 µM
- Kd [4]: > 1500 µM
